Results as given in patent US20250257133A1 (ADAGENE PTE, published 2025).
Positions count from the first letter of the chain named. Names and notes keep the numbering of the source.

B1: TY24884 (antibody, human IgG4 S228P, kappa, V domains shown)
VH: QVQLVQSGAEVKKPGSSVKVSCKASGFTFSGYAIHWVRQAPGQGLEWIGQIYHSGSTYYNPSLKSRVTITADKSTSTAYMELSSLRSEDTAVYYCARSGYGGYDFDYWGQGTLVTVSS
VL: DIQLTQSPSSLSASVGDRVTITCRASQSVPRRYLAWYQQKPGKAPKLLIYAASTLQSGVPSRFSGSGSGTDFTLTISSLQPEDFATYYCQQYYRSPITFGQGTKVEIKR
notes: hIgG4/S241P
B2: TY24859 (antibody, human IgG4 S228P, kappa, V domains shown)
VH: EVQLVESGGGLVQPGGSLRLSCAASGFSLSTGGVGVGWIRQAPGKGLEWIGEIYHSGSTYYSPSLKSRVTISRDNSKNTLYLQLNSLRAEDTAVYYCARYGYSYYALDYWGQGTLVTVSS
VL: DIQLTQSPSSLSASVGDRVTITCSASSSVGYVQWYQQKPGKAPKLLIYDASNLETGVPSRFSGSGSGTDFTLTISSLQPEDFATYYCQQSYTSPRTFGQGTKVEIKR
notes: hIgG4/S241P
B3: TY24866 (antibody, human IgG4 S228P, kappa, V domains shown)
VH: B2 VH with S62P, G101E, Y104S, A106G
VL: DIQLTQSPSSLSASVGDRVTITCRASQDIRKFLAWYQQKPGKAPKLLIYDASSLESGVPSRFSGSGSGTDFTLTISSLQPEDFATYYCQQSYRSPRTFGQGTKVEIKR
notes: hIgG4/S241P
B4: TY24869 (antibody, human IgG4 S228P, kappa, V domains shown)
VH: QVQLVQSGAEVKKPGSSVKVSCKASGYSISSGYHWGWIRQAPGQGLEWIGAIYHSGSTYYSPSLKSRVTITADKSTSTAYMELSSLRSEDTAVYYCARSGLVYYAFDYWGQGTLVTVSS
VL: B3 VL with D28G, R30G, K31S, F32Y, S91Y, Y92S, R93T, R96L
notes: hIgG4/S241P
B5: TY24876 (antibody, human IgG4 S228P, kappa, V domains shown)
VH: B4 VH with S30T, S99G, G100P, V102S
VL: DIQLTQSPSSLSASVGDRVTITCRASQSVSRYLAWYQQKPGKAPKLLIYDASNRATGIPSRFSGSGSGTDFTLTISSLQPEDFATYYCQQYYRSPITFGQGTKVEIKR
notes: hIgG4/S241P
B6: TY24878 (antibody, human IgG4 S228P, kappa, V domains shown)
VH: QVQLVQSGAEVKKPGSSVKVSCKASGFSLSTGGVAVAWIRQAPGQGLEWIGQIYYSGSTYYNPSLKSRVTITADKSTSTAYMELSSLRSEDTAVYYCARSSAHYYFDVWGQGTLVTVSS
VL: DIQLTQSPSSLSASVGDRVTITCRASESVDFQGISFLDWYQQKPGKAPKLLIYDASSLESGVPSRFSGSGSGTDFTLTISSLQPEDFATYYCQQSYRSPITFGQGTKVEIKR
notes: hIgG4/S241P
B7: TY24879 (antibody, human IgG4 S228P, kappa, V domains shown)
VH: B4 VH with A51S, S61N, V102R, Y108V
VL: B3 VL with R24A, I29V, R30S, K31T, F32A, L33V, D50A, E55Q, R96I
notes: hIgG4/S241P
B8: TY24856 (antibody, human IgG4 S228P, kappa, V domains shown)
VH: EVQLVESGGGLVQPGGSLRLSCAASGYSISSGHHWSWIRQAPGKGLEWIGEIYHSGSTYYSPSLKSRVTISRDNSKNTLYLQLNSLRAEDTAVYYCARRDFGASYFDYWGQGTLVTVSS
VL: DIQLTQSPSSLSASVGDRVTITCRASQGVGPWLAWYQQKPGKAPKLLIYAASSLQSGVPSRFSGSGSGTDFTLTISSLQPEDFATYYCQQYYSYSTFGQGTKVEIKR
notes: hIgG4/S241P
B9: TY24857 (antibody, human IgG4 S228P, kappa, V domains shown)
VH: B2 VH with G32S, G35A, Y100H, S103H
VL: B3 VL with R24P, I29V, R30G, K31T, F32A, L33V, S91Y, R93S, R96P
notes: hIgG4/S241P
B10: TY24858 (antibody, human IgG4 S228P, kappa, V domains shown)
VH: B8 VH with S36T, F101Y, A103S
VL: B1 VL with P30S, R32S, Y33F, A51D, T54N, L55R, Q56A, S57T, V59I
notes: hIgG4/S241P
B11: TY24877 (antibody, human IgG4 S228P, kappa, V domains shown)
VH: QVQLVQSGAEVKKPGSSVKVSCKASGYTFTNYGIHWVRQAPGQGLEWIGEIYHSGSTYYSPSLKSRVTITADKSTSTAYMELSSLRSEDTAVYYCARGPLSYYALDYWGQGTLVTVSS
VL: B3 VL with D28S, K31R, A34N, S91Y, R96I
notes: hIgG4/S241P
B12: TY24860 (antibody, human IgG4 S228P, kappa, V domains shown)
VH: B2 VH with G32S, G37S, Y100K, S103Y, L107F, Q112P
VL: B3 VL with R30G, K31S, D50A, E55Q, R96P
notes: hIgG4/S241P

Target: T1, Recombinant human CD28-Fc (human, UniProt P10747 19-152)
T1 construct: not shown: Fc part
Test: ELISA, coated CD28-Fc

B1 and B2 are within 1.5-fold of each other in EC50: 1.02 nM for the first, 1.34 nM for the second.

First: B3
Second: B4
The EC50 of the first is 1.5-fold lower: 0.57 nM for the first, 0.87 nM for the second.

B5 and B6 are within 1.5-fold of each other in EC50: 1.02 nM for the first, 1.06 nM for the second.

For B7, the EC50 was 0.9 nM.

Target: T2, Recombinant mouse CD28-Fc (mouse, UniProt P31041 20-150)
T2 construct: not shown: Fc part
Test: ELISA, coated CD28-Fc

T2 sequence (P31041 20-150 limits assumed): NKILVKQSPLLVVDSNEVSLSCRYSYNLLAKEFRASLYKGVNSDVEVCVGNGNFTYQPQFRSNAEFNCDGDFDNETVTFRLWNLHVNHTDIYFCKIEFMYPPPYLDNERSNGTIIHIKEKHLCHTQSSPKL

B1 and B2 cannot be ordered by EC50: > 44.4 nM for the first, > 44.4 nM for the second.

B3 and B4 cannot be ordered by EC50: > 1.65 nM for the first, > 14.8 nM for the second.

Going from B5 to B6, the EC50 rises from 3.93 nM to > 14.8 nM.

For B7, the EC50 was > 1.65 nM.

Target: T3, His-tagged human CD28 protein (human, UniProt P10747 19-152)
T3 construct: not shown: His tag
Test: Octet BLI, mAb captured;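 further: Anti-human Fc biosensors captured the antibodies, then His-tagged protein analytes at 100 nM associated for 300 s and dissociated for 300 s, fitted by a 1:1 Langmuir model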

B1 and B2 are within 1.5-fold of each other in Kd: 2.42 nM for the first, 2.68 nM for the second.

Compared with B3, B4 is higher in Kd: < 0.001 nM for the first, 2.73 nM for the second. The first binds more tightly here.

Going from B5 to B6, the Kd rises from < 0.001 nM to 4.21 nM. The first binds more tightly here.

Going from B7 to B8, the Kd rises from < 0.001 nM to 7.8 nM.

B9 and B10 are within 1.5-fold of each other in Kd: 8.64 nM for the first, 9.88 nM for the second.

B11 and B12 are within 1.5-fold of each other in Kd: 7.19 nM for the first, 6.66 nM for the second.

B1 and B2 are within 1.5-fold of each other in koff: 0.000166 s⁻¹ for the first, 0.00019 s⁻¹ for the second.

Compared with B3, B4 is higher in koff: < 1e-07 s⁻¹ for the first, 0.000128 s⁻¹ for the second.

Going from B5 to B6, the koff rises from < 1e-07 s⁻¹ to 0.000411 s⁻¹.

First: B7
Second: B8
The koff of the first is lower: < 1e-07 s⁻¹ for the first, 0.000538 s⁻¹ for the second.

B9 and B10 are within 1.5-fold of each other in koff: 0.00063 s⁻¹ for the first, 0.000702 s⁻¹ for the second.

First: B11
Second: B12
The koff of the first is 2.2-fold lower: 0.000193 s⁻¹ for the first, 0.000421 s⁻¹ for the second.

B1 and B2 are within 1.5-fold of each other in kon: 68400 M⁻¹ s⁻¹ for the first, 70800 M⁻¹ s⁻¹ for the second.

B3 and B4 are within 1.5-fold of each other in kon: 58000 M⁻¹ s⁻¹ for the first, 46800 M⁻¹ s⁻¹ for the second.

First: B5
Second: B6
The kon of the first is 3-fold lower: 32500 M⁻¹ s⁻¹ for the first, 97500 M⁻¹ s⁻¹ for the second.

B7 and B8 are within 1.5-fold of each other in kon: 59400 M⁻¹ s⁻¹ for the first, 68900 M⁻¹ s⁻¹ for the second.

B9 and B10 are within 1.5-fold of each other in kon: 72900 M⁻¹ s⁻¹ for the first, 71000 M⁻¹ s⁻¹ for the second.

Compared with B11, B12 is 2.3-fold higher in kon: 26900 M⁻¹ s⁻¹ for the first, 63200 M⁻¹ s⁻¹ for the second.

Target: T4, His-tagged human CTLA4 protein (human, UniProt P16410 36-161, limits assumed)
T4 construct: not shown: His tag
Test: Octet BLI, mAb captured;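 further: Anti-human Fc biosensors captured the antibodies, then His-tagged protein analytes at 100 nM associated for 300 s and dissociated for 300 s, fitted by a 1:1 Langmuir model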

T4 sequence (P16410 36-161 limits assumed): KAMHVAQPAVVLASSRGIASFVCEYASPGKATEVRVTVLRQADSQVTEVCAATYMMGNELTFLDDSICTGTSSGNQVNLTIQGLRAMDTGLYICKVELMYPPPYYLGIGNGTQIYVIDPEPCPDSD

B1 and B2 are within 1.5-fold of each other in Kd: 6.36 nM for the first, 6.63 nM for the second.

Compared with B3, B4 is 6.4-fold lower in Kd: 7.64 nM for the first, 1.2 nM for the second.

First: B5
Second: B6
The Kd of the first is 4.4-fold higher: 4.28 nM for the first, 0.969 nM for the second.

B7 and B8 are within 1.5-fold of each other in Kd: 7.17 nM for the first, 5.13 nM for the second.

B9 and B10 are within 1.5-fold of each other in Kd: 5.44 nM for the first, 7.9 nM for the second.

B11 showed a Kd of 13.2 nM.

B1 and B2 are within 1.5-fold of each other in koff: 0.00408 s⁻¹ for the first, 0.00311 s⁻¹ for the second.

Compared with B3, B4 is 8.8-fold lower in koff: 0.004 s⁻¹ for the first, 0.000454 s⁻¹ for the second.

B5 and B6 are within 1.5-fold of each other in koff: 0.000585 s⁻¹ for the first, 0.00041 s⁻¹ for the second.

Compared with B7, B8 is 2-fold lower in koff: 0.00313 s⁻¹ for the first, 0.00156 s⁻¹ for the second.

B9 and B10 are within 1.5-fold of each other in koff: 0.00355 s⁻¹ for the first, 0.00242 s⁻¹ for the second.

For B11, the koff was 0.00311 s⁻¹.

B1 and B2 are within 1.5-fold of each other in kon: 641000 M⁻¹ s⁻¹ for the first, 469000 M⁻¹ s⁻¹ for the second.

B3 and B4 are within 1.5-fold of each other in kon: 524000 M⁻¹ s⁻¹ for the first, 379000 M⁻¹ s⁻¹ for the second.

First: B5
Second: B6
The kon of the first is 3.1-fold lower: 137000 M⁻¹ s⁻¹ for the first, 423000 M⁻¹ s⁻¹ for the second.

B7 and B8 are within 1.5-fold of each other in kon: 437000 M⁻¹ s⁻¹ for the first, 304000 M⁻¹ s⁻¹ for the second.

Compared with B9, B10 is 2.1-fold lower in kon: 652000 M⁻¹ s⁻¹ for the first, 306000 M⁻¹ s⁻¹ for the second.

In the case of B11, the kon is reported as 235000 M⁻¹ s⁻¹.

B12: no binding (tested: 100 nM CTLA4).

Target: T5, Human CD28 on cells (human, UniProt P10747 19-220)
T5 construct: Jurkat E6-1 cells, primary human T cells, or transfected HEK293F cells; also called CD28 on Jurkat cells; CD28 on human CD3+ T cells
Test: flow cytometry, Jurkat cells
Procedure: Next, the cells were washed twice with DPBS and further incubated with a APC-anti-human IgG Fc secondary antibody (1 μg/mL, 100 μL/well, Biolegend) for 30 minutes at 4° C. Finally, the cells were washed twice with DPBS and suspended in FACS buffer for flow cytometry analysis. For analysis, the Mean Fluorescence Intensity (MFI) values versus concentrations were plotted using FlowJo 10 software (FlowJo LLC) and the data were further fitted with four-parameter non-linear regression to obtain EC₅₀ values by GraphPad Prism version 7 for Windows, GraphPad Software, La Jolla California USA, www.graphpad.com.

B1 and B2 are within 1.5-fold of each other in EC50: 1.09 nM for the first, 0.97 nM for the second.

First: B3
Second: B4
The EC50 of the first is 1.5-fold lower: 0.7 nM for the first, 1.07 nM for the second.

B5 and B6 are within 1.5-fold of each other in EC50: 0.38 nM for the first, 0.39 nM for the second.

Compared with B7, B8 is 1.5-fold lower in EC50: 1.17 nM for the first, 0.76 nM for the second. The second is the more potent here.

B9 and B10 are within 1.5-fold of each other in EC50: 0.75 nM for the first, 0.7 nM for the second.

B11 and B12 are within 1.5-fold of each other in EC50: 0.79 nM for the first, 0.78 nM for the second.

Target: Human CD28 (ELISAs of Examples 4 and 13) (human, UniProt P10747 19-152, limits assumed)
Test: ELISA, blocking of CD28-CD80

B1 and B2 are within 1.5-fold of each other in IC50: 0.28 nM for the first, 0.42 nM for the second.

Compared with B3, B4 is 2-fold higher in IC50: 0.27 nM for the first, 0.55 nM for the second.

First: B5
Second: B6
The IC50 of the first is 1.5-fold higher: 0.54 nM for the first, 0.35 nM for the second. The second is the more potent here.

For B7, the IC50 was 0.42 nM.
